Data on 1 substance can be found in publication PMC5171940.

The test deals with Aβ oligomers: soluble prefibrillar aggregates of biotinylated Aβ(1–42). The test is described as follows: SPR; BIAcore T200, single-cycle kinetics; biotinylated Aβ (11–28 or oligomeric 1–42) captured on streptavidin-coupled CM5 chip (100–200 RU); antibody as analyte 0.8–500 nM in HBS-P pH 7.4, 0.15 M NaCl; one-to-one Langmuir model. For orientation: SPR reads the build-up and loss of mass on a sensor chip optically.

By Kd is commonly meant the concentration at which binding is half-saturated. Lower therefore signals higher affinity. “Crenezumab, fully humanized anti-Aβ monoclonal IgG4 (antibody)” gave a Kd of 0.4 to 0.6 nM.
